Data on 40 sequences can be found in the nanobody polyreactivity screen of Harvey et al. (2022).

A short description of this data set: yeast display, Sf9 membrane polyspecificity reagent, FACS + sequencing; frameworks hold sequencing errors. Put shortly: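 After 36–48 hours of galactose induction, yeast (Saccharomyces cerevisiae BJ5465) displaying a synthetic nanobody library were stained at 4 °C for 1 hour with 10% biotinylated, detergent-solubilized Sf9 membrane reagent. Streptavidin microbeads enriched the stained cells before FACS sorting into low and high (top ~1%) gates on anti-HA and streptavidin fluorescence. Each clone's polyreactivity label reflects its gate of origin.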
Take “QVQLVESGGGLVQAGGSLRLSCAASGRIFPYYVMGWYRQAPGKERELVAAISRSGSSTYYADSVKGRFTITRDNAKNTVYLQMNSLKPEDTAVYYCAADYNWSPYYTRGDYWGQGTQVTVSS”: the “polyreactivity (PSR sort gate)” value is given as “high polyreactivity”. The value for “QVQLVESGGGLVQAGGSLRLSCAASGRIFQDYAMGWYRQAPGKERELVASIRWSSTSTYYADSVKGRFTISRDNAKNTVYLQMNSLKPEVSAVYYCAKRPFYLTYFRDDYWGQGTQVSVSS” was “low polyreactivity”. Next, “QVQLVESGGGLVQAGGSLRLSCAASGRIFQFNFMGWYRQAPGKERELVAAISGSGGSTYADSVKGRFTISRDNAKNTVYLQMNSLKPEDTAVYYCATEYVVYRPRGRLQKFDYWGQGTQVTVSS”: “low polyreactivity”; “QVQLVESGGGLVQAGGSLRLSCAASGRIFQGNAMGWYRQAPGKERELVAAITSSGSSTYYADSVKGRFTISRDNAKNTVYLQMNSLKPEDTAVYYCAARATGPIMYYWGQGTQVTVSS”: “high polyreactivity”; “QVQLVESGGGLVQAGGSLRLSCAASGRIFQGYAMGWYRQAPGKERELDAAITVRGGTTYYADSVKGRFTISRDNAKNTVYLQMNRRKPEDTAVYYCNAAKLIHCYQYVYPASNSRYYYWGQGTQVTVSS”: “low polyreactivity”. On to “QVQLVESGGGLVQAGGSLRLSCAASGRIFQGYAMGWYRQAPGKERELVARITFRGARTYYADSVKGRFTISRDNAKITVYLHMNCLKPEDTAVYYFAKDAETYYWGSYKSLYDYWGQGTQVTVSS”, for which the “polyreactivity (PSR sort gate)” value is “low polyreactivity”. Next, “QVQLVESGGGLVQAGGSLRLSCAASGRIFQGYAMGWYRQAPRKERELVASITVRGGTTYYADSVKGRFTISRDHAKNTVYLQMISLKPEDTAVYYCNAAKLIHGYQSVYPGSNSRYYYWGQGTQVTVSS”: “low polyreactivity”; “QVQLVESGGGLVQAGGSLRLSCAASGRIFQHNTMGWYRQAPGKEREFVAAIRRSGGSTYYADSVKGRFTISRDNAKNTVYLQMNSLKPEDTAVYYCAARDYPTGTRRWGGGDSWGQGTQVTVSS”: “low polyreactivity”. “QVQLVESGGGLVQAGGSLRLSCAASGRIFQKNAMGWYRQAPGKERELVAAISSGGSTNYADSVKGRFTISRDNAKNTVYLQMNSLKPEDTAVYYCAVESVYEYGGYVDSAYDYWGQGTQVTVSS”: the “polyreactivity (PSR sort gate)” value is reported as “low polyreactivity”. Consider “QVQLVESGGGLVQAGGSLRLSCAASGRIFQLYAMGWYRQRPGKERELVAAIRYSGDSTYYADSVKGRFTISRDNAKNTVYLQMNSLKPEDTAVYYCAAYWVYLSYYRYDYWGQGTQVTVSS”, for which the “polyreactivity (PSR sort gate)” value is “high polyreactivity”. As to “QVQLVESGGGLVQAGGSLRLSCAASGRIFQNYAMGWYRQATGKERELVAAIRRSSGRSYYADSVKGRFTISRDNAKNTVYLLMNSLKPEDTAVYYCNAVRGEEYDYWGQGTQVTVSS”, the “polyreactivity (PSR sort gate)” value was “high polyreactivity”.

In the case of “QVQLVESGGGLVQAGGSLRLSCAASGRIFQPYTMGWYRQAPGKERELVAAITRSGGSTYYADSVKGRFTISRDNAKNTVYLQMNSLKPEDTAVYYCAADSRPYGKYDYWGQGTQVTVSS”, the “polyreactivity (PSR sort gate)” value is listed as “high polyreactivity”.

As for “QVQLVESGGGLVQAGGSLRLSCAASGRIFQRYAMGWYRQAPGKERELVATITRSGGSTYYADSVKGRFTISRDNAKNTVYLQMNSLKPEDTAVFYCSRQWYRYGMGYWGQGTQVSVSS”, the “polyreactivity (PSR sort gate)” value is recorded as “high polyreactivity”.

For “QVQLVESGGGLVQAGGSLRLSCAASGRIFQRYAMGWYSQAPGKERELVAAISSRGGRTFYADSVKGRFTISRDNAKNTVYLQMNSLKPEDTAAYYCAATATVGCVSFDYWGQGTQVTVSS”, the “polyreactivity (PSR sort gate)” value is given as “high polyreactivity”. The value for “QVQLVESGGGLVQAGGSLRLSCAASGRIFQRYMGWYRQAPGKERELVAAISRRGGSTYYADSVKARFTISRDNAKNTVYLQMNSLKPEDTAVYYWNAVNVLAPSRGRRYDYWGQGTQVTVSS” was “high polyreactivity”; that for “QVQLVESGGGLVQAGGSLRLSCAASGRIFQSNAMGLYRQAPGKERELVAAISYSGGGSTYYADSVNGRFTISRDNAKNTVYLQMNSLKPEDTAVYYCAARRVGGCFYTWRNPAYEYWGQGTQVTVSS” was “high polyreactivity”. Next, “QVQLVESGGGLVQAGGSLRLSCAASGRIFQSNVMGWYRQAPGKERELVAGISTSGGSTYYADSVKGRFTISRDYAKNTVYLQMNSLKPEDTAVYYCAKDPSAVKVPYGYPVIKKTYNSWGQGTQVTVSS”: “low polyreactivity”. Turning to “QVQLVESGGGLVQAGGSLRLSCAASGRIFQSYAMGWYRQAPGKERELVAGIRAGGGRTYYADSVKGRFTISRDNAKNTVYLQMNSLKPEDTAVYYCAAGGRPYKLDFTRSDYWGEGTQVTVSS”, the “polyreactivity (PSR sort gate)” value is “low polyreactivity”. On to “QVQLVESGGGLVQAGGSLRLSCAASGRIFQVNAMGWYRQAPGKERELVAAITYSGGTTYYADSVKGRFTISRDNAKNTVYLQMNSLKPEDTAVYYCAAEGYGAQGDPWQYGYEYWGQGTQVTVSS”, for which the “polyreactivity (PSR sort gate)” value is given as “low polyreactivity”. For “QVQLVESGGGLVQAGGSLRLSCAASGRIFQWYAMGSYRQAPGKERELVATISDGDSTNYADSVKGRFTISRDNAKNTVFAQMNSLKTEDTEVYYCAALDSYYDSYYWYDYWGQGTQVTVSS”, the “polyreactivity (PSR sort gate)” value is recorded as “high polyreactivity”.

Consider “QVQLVESGGGLVQAGGSLRLSCAASGRIFQYNAMGWYRQSPGKERELVAAIRRGGGSTYYADSVKGRFTISRDNAKNTVYLQMNSLKPEDTAVYYCAARRKRVSFYPEYDYWGQGTQVTVSS”, for which the “polyreactivity (PSR sort gate)” value is given as “low polyreactivity”. The value for “QVQLVESGGGLVQAGGSLRLSCAASGRIFQYYAMGWYRQAPGKERELVAAIDQSGDTTYYADSVKGRFTISRDNAKNTVYLQMNSLKPEDTAVYYCAAGYDWAYHWVPQWMYFWGQGTQVTVSS” was “low polyreactivity”; that for “QVQLVESGGGLVQAGGSLRLSCAASGRIFQYYAMGWYRQAPGKERELVAAISRGGSTNYADSVKGRFTISRDNAKNTVYLQMNSLKPEDTAVYFCAADEYRYYFYRAGIGFDYWGQGTQVTVSS” was “low polyreactivity”; that for “QVQLVESGGGLVQAGGSLRLSCAASGRIFQYYAMGWYRQAPGKERELVAAISRTGSTYYADSVKGRFTISRDNGKNTVYLQMNRLNPEDTAVYYCAADYWPQSNRWVYFRYGYWGQGTQVTVSS” was “high polyreactivity”. In the case of “QVQLVESGGGLVQAGGSLRLSCAASGRIFQYYTMGWYRQAPGKERELVAAISYGGGSTYYADSVKGRFTISRDHAKNTVYLQMNSLKPEDTAVYYCNAVTYSRRYAYYYWGQGTQVTVSS”, the “polyreactivity (PSR sort gate)” value was “high polyreactivity”. As to “QVQLVESGGGLVQAGGSLRLSCAASGRIFQYYTMGWYRQAPGKERELVAAITWSSSRTYYADSVKGRVTISRDNAKNTVYLQMNSLKPEDTAVNYCAAEAQAAWNDYTYWGQGTQVTVSS”, the “polyreactivity (PSR sort gate)” value is given as “high polyreactivity”. “QVQLVESGGGLVQAGGSLRLSCAASGRIFRANAMGWYRQAPGKERELVAAISYRGGSTYYADSVKGRFTISRDNAKNTVYLQMNSLKPEDTAVYYCAADSDRSVWIYGYWGQGTQVTVSS”: the “polyreactivity (PSR sort gate)” value is “low polyreactivity”. “QVQLVESGGGLVQAGGSLRLSCAASGRIFRAYAMGWYRQAPGKEREFVAAITWSGGSTYYADSVKGRFTISRDNAKNTVYLQMNSLKPEDTAVYYCAARGYSYRRRSQQFDYWGQGTQVTVSS”: the “polyreactivity (PSR sort gate)” value is reported as “high polyreactivity”.

On to “QVQLVESGGGLVQAGGSLRLSCAASGRIFRAYAMGWYRQAPGKERELVAVITGSGGSTYYADSVKGRFTISRDNAKNTVYLQMNSLKPEDTAVYYCAAPVHTASGRWVPGYYYWGQGTQVTVSS”, for which the “polyreactivity (PSR sort gate)” value is on record as “high polyreactivity”. For “QVQLVESGGGLVQAGGSLRLSCAASGRIFRAYAMGWYRQAPRKERELVAAISYRGGSTYYADSVKGRFTISRDNAKNTVYLQMNSLKPEDTAVYDCAADSDRSVWIYGYWGQGTQVTVSS”, the “polyreactivity (PSR sort gate)” value is given as “low polyreactivity”.

Consider “QVQLVESGGGLVQAGGSLRLSCAASGRIFRDNAMGGYRQAPGKERELVASISSRTGRTYYADSVKGRFTISRDNAKNTVYLQMNSLKPEDTAVYYCAAAFIYRGPGSLKFDYWGQGTQVTVSS”, for which the “polyreactivity (PSR sort gate)” value is given as “low polyreactivity”. Take “QVQLVESGGGLVQAGGSLRLSCAASGRIFRDYAMGWYRQAPGKERELVAAITGSGGRTYYADSVKGRFTISRDTAKNTVYLQMNSLKPEDTAVYYCAAYLGRRGQEMDYWGQGTQVTVSS”: the “polyreactivity (PSR sort gate)” value is reported as “high polyreactivity”. For “QVQLVESGGGLVQAGGSLRLSCAASGRIFRENAMGWYRQAPGKERELVAAISSGGSTYYADSVKGRFTISRDNAKNTVYLQMNSLKPEDTAVYYCAADLSWSRVVFGDYDYWGQGTQVTVSS”, the “polyreactivity (PSR sort gate)” value was “low polyreactivity”.

In the case of “QVQLVESGGGLVQAGGSLRLSCAASGRIFRENAMGWYRQAPGKERELVASNSLSGTSTYYADSVKGRFTISRDNAKNTVYLQMNSLKPEDTAVYYCNGERLSTDPYDRNYWGQGTQVTVSS”, the “polyreactivity (PSR sort gate)” value is reported as “low polyreactivity”. Consider “QVQLVESGGGLVQAGGSLRLSCAASGRIFRFNAMGWYRQAPGKERELVAAITGSGGTTFYADSVKGRFTISRDNAKNTVYLQMNSLKPEDTAVYYCITLGNWRPVYNQPRYEYWGQGTQVTVSS”, for which the “polyreactivity (PSR sort gate)” value is reported as “high polyreactivity”. As for “QVQLVESGGGLVQAGGSLRLSCAASGRIFRFYDMGWYRQAPVKESELVASISSTGGRTYYADSVKGRFTISRDNAKNTVYVQMNSLKPEDTAVYYCNATRGQYVGRYYYWGQGTQVTVSW”, the “polyreactivity (PSR sort gate)” value is “high polyreactivity”. For the sequence “QVQLVESGGGLVQAGGSLRLSCAASGRIFRGNAMGWYRQAPGKEREMVAAISRRSGSTYYADSVKGRFTISRDNAKNTVYLQMNSLKPEDTAVYYCAATSSLGDFRYDYWGQVTQVTVSS”, the “polyreactivity (PSR sort gate)” value is reported as “high polyreactivity”. With “QVQLVESGGGLVQAGGSLRLSCAASGRIFRGYAMGWYRPAPGKERELVAAINWSGGSTDYADSVKGRFTISRDYAKNTVYLQMNSLKPEDTAVYYCSTSTCRGYSWGHGTQVTVSS”, the “polyreactivity (PSR sort gate)” value is listed as “high polyreactivity”. As to “QVQLVESGGGLVQAGGSLRLSCAASGRIFRGYAMGWYRQAPGKERELVAAISQSGSSTYYADSVKGRFTISRDNAKNTVYLQMNSLKPEDTAVYFCAVKYLKHFGYWGQGTQVTVSS”, the “polyreactivity (PSR sort gate)” value is reported as “high polyreactivity”. Take “QVQLVESGGGLVQAGGSLRLSCAASGRIFRGYAMGWYRQAPGKERELVARITSGGRTYYADSVKGRFTISRDNAKNTVYLQMNSLKPEDTAVYYCATVGRGYDERHNYWGQGTQVTVSS”: the “polyreactivity (PSR sort gate)” value is “high polyreactivity”.
